Common to all, as to assay: ELISA
In experiment [1] the target is RSV FxG (respiratory syncytial virus A2 | respiratory syncytial virus (strain not stated for G)) (UniProt P03423).
In another experiment the target is RSV sG.
The target of experiment [2] is RSV F clamp (respiratory syncytial virus A2) (UniProt P03420).
Experiment [3] has as its target NiV FxG (Nipah virus (Malaysia strain) | Nipah virus) (UniProt Q9IH63).

The values below come from article PMC8537613.

Chain of RSV FxG (respiratory syncytial virus A2 | respiratory syncytial virus (strain not stated for G)) (P03423 whole entry): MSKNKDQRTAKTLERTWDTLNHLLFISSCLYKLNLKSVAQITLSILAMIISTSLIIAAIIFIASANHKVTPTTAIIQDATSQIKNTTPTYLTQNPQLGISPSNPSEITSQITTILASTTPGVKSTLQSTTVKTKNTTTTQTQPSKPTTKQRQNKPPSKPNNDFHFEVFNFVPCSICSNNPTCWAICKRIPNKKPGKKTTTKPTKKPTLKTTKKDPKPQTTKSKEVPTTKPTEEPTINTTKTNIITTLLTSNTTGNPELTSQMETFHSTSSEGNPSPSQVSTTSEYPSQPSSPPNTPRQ
Chain of RSV F clamp (respiratory syncytial virus A2) (P03420 whole entry, looked up): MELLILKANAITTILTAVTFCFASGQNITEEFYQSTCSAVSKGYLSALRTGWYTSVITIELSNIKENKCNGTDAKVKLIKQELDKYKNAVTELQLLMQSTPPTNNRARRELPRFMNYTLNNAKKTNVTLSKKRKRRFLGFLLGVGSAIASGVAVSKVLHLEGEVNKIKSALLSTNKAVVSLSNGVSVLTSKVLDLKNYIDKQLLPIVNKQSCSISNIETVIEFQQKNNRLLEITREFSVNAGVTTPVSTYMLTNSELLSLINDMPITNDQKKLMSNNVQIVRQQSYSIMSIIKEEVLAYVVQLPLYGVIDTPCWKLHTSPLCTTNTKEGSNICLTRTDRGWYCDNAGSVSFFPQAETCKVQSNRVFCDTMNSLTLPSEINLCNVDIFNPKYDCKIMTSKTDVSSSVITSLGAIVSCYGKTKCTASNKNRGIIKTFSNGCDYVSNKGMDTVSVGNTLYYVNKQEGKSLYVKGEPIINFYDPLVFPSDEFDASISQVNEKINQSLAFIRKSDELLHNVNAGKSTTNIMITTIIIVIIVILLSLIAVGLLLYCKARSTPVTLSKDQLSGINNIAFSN
Chain of NiV FxG (Nipah virus (Malaysia strain) | Nipah virus) (Q9IH63 whole entry, looked up): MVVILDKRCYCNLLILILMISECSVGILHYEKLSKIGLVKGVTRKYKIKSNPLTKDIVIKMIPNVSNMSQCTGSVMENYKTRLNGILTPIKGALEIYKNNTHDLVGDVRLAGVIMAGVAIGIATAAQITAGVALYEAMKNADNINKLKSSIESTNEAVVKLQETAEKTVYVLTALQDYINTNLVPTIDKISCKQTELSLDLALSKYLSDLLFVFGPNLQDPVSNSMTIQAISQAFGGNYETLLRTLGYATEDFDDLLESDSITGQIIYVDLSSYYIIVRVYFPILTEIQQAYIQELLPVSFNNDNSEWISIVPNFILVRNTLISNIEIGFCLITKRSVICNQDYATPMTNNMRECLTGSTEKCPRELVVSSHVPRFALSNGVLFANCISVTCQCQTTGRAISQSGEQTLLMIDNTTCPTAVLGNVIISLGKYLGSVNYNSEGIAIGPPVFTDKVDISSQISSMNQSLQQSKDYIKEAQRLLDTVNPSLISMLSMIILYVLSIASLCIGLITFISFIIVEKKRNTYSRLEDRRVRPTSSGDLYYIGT

As usually defined, the Kd is the equilibrium constant for the complex coming apart. With 2D10, the Kd in experiment [1] is 0.41 nM; with RSV sG, 1.29 nM.

As for 3D3, the equilibrium dissociation constant (Kd) was found to be 0.43 nM in experiment [1] and 2.11 nM with RSV sG.

As to D25, the Kd turned out to be 0.97 nM in experiment [2] and 0.48 nM in experiment [1].

For MPE8, the Kd in experiment [2] amounted to 0.64 nM; in experiment [1] it was 0.42 nM.

Mota: the Kd in experiment [2] stood at 0.21 nM; in experiment [1], 0.26 nM.

In experiment [3], m102.4 showed a Kd of 0.17 nM.
